# Laboratory results as given in article PMC10473253, “A novel salt- and organic solvent-tolerant phosphite dehydrogenase from Cyanothece sp. ATCC 51142” (Frontiers in Bioengineering and Biotechnology, 2023).
# B1: Ct-PtxD (Crocosphaera subtropica ATCC 51142) (protein)
# chain: MNQKPKVVITHWVHPEIIDYLTPHCELILNQTKETLTREEVINRSKDAQGLMVFMPDYIDVNFLEACPQLKVISGALRGYDNFDVEACTKRNIWFTIVPDLLAAPTAELTIGLLLILARRMVEGDRLIRSGNFQGWKPQLYSTGLLNKTLGIIGMGKLGKALTKRLMGFDMTLLYHDKITLTSQQERDWKITKTSLEELLTKSDYVVLMVPLVPDTYHLINENSLKMMKPNSFLINPCRGSIVDETAVATAIKSGHLAGYAADVFEMEDWAIANRPQSINQTLLTDINHTFFTPHLGSAVNEVRRDIALEAAKNIIEVLSENRPQGAVNGIV
# notes: full-length, 332 residues; pET-21b(+) NdeI/XhoI, His-tagged, E. coli Rosetta2 (DE3) pLysS
# Tests used:
# Experiment in all cases: purified protein
# Format in all cases: biochemical, Crocosphaera subtropica
# purified protein [1] = substrate: NC(=O)c1ccc[n+]([C@@H]2O[C@H](COP(=O)(O)OP(=O)(O)OC[C@H]3O[C@@H](n4cnc5c(N)ncnc54)[C@H](OP(=O)(O)O)[C@@H]3O)[C@@H](O)[C@H]2O)c1; details: 1.0 mM phosphite, 100 mM MOPS pH 7.3, 37°C
# purified protein [2] = substrate: O=[PH](O)O; details: 1.0 mM NAD+ as co-substrate, 100 mM MOPS pH 7.3, 37°C
# purified protein [3] = substrate: NC(=O)c1ccc[n+]([C@@H]2O[C@H](COP(=O)(O)OP(=O)(O)OC[C@H]3O[C@@H](n4cnc5c(N)ncnc54)[C@H](O)[C@@H]3O)[C@@H](O)[C@H]2O)c1; details: 1.0 mM phosphite, 100 mM MOPS pH 7.3, 37°C, text b35 prints kcat 2.24 ± 0.15
protein,measurement,setting,value
B1,Km,purified protein [1],122 ± 4 µM
same,Km,purified protein [2],168 ± 25 µM
same,Km,purified protein [3],9.07 ± 1.05 µM
